Patent publication US20260224711A1, “ENHANCING BRAIN PERMEABILITY AND ACTIVITY OF GLUCOSYLCERAMIDASE (GCase) PROSNA FOR NEURODEGENERATIVE DISEASES” (NORTHWESTERN UNIVERSITY, priority 2023, published 2026)
“Also recorded” adds a separate entry of the source. Read-outs that look alike come from different tables or passages of the source.

T1: GCase ProSNA constructs (Homo sapiens, UniProt P04062)
T1 sequence (P04062 40-536): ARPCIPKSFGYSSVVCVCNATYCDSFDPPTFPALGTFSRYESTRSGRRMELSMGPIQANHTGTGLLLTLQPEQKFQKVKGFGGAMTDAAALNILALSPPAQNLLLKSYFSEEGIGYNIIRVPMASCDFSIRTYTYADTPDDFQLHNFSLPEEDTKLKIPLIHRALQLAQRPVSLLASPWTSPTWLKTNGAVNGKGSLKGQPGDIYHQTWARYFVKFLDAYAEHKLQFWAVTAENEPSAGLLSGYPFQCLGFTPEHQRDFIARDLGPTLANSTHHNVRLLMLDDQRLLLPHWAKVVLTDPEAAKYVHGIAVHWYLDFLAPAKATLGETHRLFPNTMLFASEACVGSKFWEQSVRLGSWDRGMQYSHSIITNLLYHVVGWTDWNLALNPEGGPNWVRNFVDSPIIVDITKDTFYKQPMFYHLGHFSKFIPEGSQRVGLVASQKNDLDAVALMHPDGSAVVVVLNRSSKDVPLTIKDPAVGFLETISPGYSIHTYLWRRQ

T2: GCase (Homo sapiens, UniProt P04062)
T2 construct: purchased GenScript; host or cells: CHO expression system
T2 sequence (P04062 40-536): T1 sequence (P04062 40-536)

B1: Bivalent ProSNA: GCase protein functionalized with the bivalent ligand (folate modified transferrin aptamer), roughly 14-18 ligands per protein (conjugate, UniProt P04062 40-536, looked up)
Lysosomal acid …: T1 sequence (P04062 40-536)
modifications: folate-modified transferrin aptamer shell, 14-18 ligands
notes: GCase protein functionalized with the bivalent ligand (folate modified transferrin aptamer), roughly 14-18 ligands per protein
B2: PEGylated protein: GCase after PEGylation, comparator in the activity assay (conjugate, UniProt P04062 40-536, looked up)
Lysosomal acid …: T1 sequence (P04062 40-536)
modifications: PEGylated
B3: Univalent ProSNA: GCase protein functionalized with only the transferrin aptamer (conjugate, UniProt P04062 40-536, looked up)
Lysosomal acid …: T1 sequence (P04062 40-536)
modifications: transferrin aptamer DNA shell

Assays:
GCase ProSNA constructs = target: T1, GCase ProSNA constructs; settings: co-incubation / co-assembly of activator with GCase ProSNA construct
From the text: Next, the assay is repeated with generated GCase ProSNA constructs to investigate whether some of the activity lost during activation can be recovered.

[1] = system: α-synuclein protein aggregates; settings: cited from earlier work
native GCase protein = native GCase protein (Homo sapiens, UniProt P04062); settings: GCase 1.9 mg/mL, quetiapine introduced 30 minutes prior to substrate, FIG. 10
Experimental: The purpose behind enzyme replacement therapy (ERT) is to replace protein that is either absent or dysregulated. […] This assay was completed using the same fluorometric kit described above, with quetiapine being introduced 30 minutes prior to the GCase substrate.

[2] = system: neurons (dopaminergic), astrocytes, and microglia; experiment: flow cytometry uptake into neuronal cell types; type: cell-based
From the text: The ability of the GCase ProSNA constructs to be taken up into cells will be assessed. To investigate their uptake potential, flow cytometry is used as a method for determining the percent uptake of the constructs compared to control groups (unmodified GCase protein, linear bivalent DNA ligand, GCase-Transferrin aptamer, and GCase-Folic Acid). Constructs are synthesized as described previously, including the fluorescent tagging the GCase protein core as well as including a Cyanine3 dye into the aptamer sequence (Folate-SEQ ID NO: 1-Cy3-DBCO dT). Once prepared, the constructs are used to treat different mono-populations of different neuronal cell types, including neurons (dopaminergic), astrocytes, and microglia, to evaluate their uptake ability. In all cases, a live dead stain is used to determine percent uptake in viable populations. Furthermore, uptake across different time points is assessed to determine the rates at which the constructs are endocytosed and processed by the different cell types.

GCase = target: T2, GCase; experiment: fluorometric GCase activity assay kit (Abcam) on GCase constructs; type: biochemical; settings: constructs at 0.24 mg/mL, GCase substrate 30 minutes at 37° C., FIG. 9; for protein activity after functionalization, compared with unmodified GCase: fluorescence Ex/Em=360/445
Experimental: Upon interaction with active GCase, this substrate releases a fluorophore detectable using a plate reader at Ex/Em=360/445 nm.
Following the synthesis process, a comprehensive investigation into the impact of synthesis on protein activity was conducted. To assess this, we employed a fluorometric GCase activity assay kit (Abcam), using a synthetic substrate-4-Methylumbelliferyl β-D-glucopyranoside. Upon interaction with active GCase, this substrate releases a fluorophore detectable using a plate reader at Ex/Em=360/445 nm. The focus extended to evaluating the effects of PEGylation on GCase, along with modifications involving univalent (sole presence of the transferrin aptamer) or bivalent (co-presence of both transferrin and folate) DNA ligands. By using the protocol outlined in this assay, the aim was to understand and analyze the variations in protein activity resulting from these modifications. Briefly, GCase constructs (all at 0.24 mg/mL) were reacted with GCase substrate for 30 minutes at 37° C. They were then measured for fluorescence intensity at Ex/Em=360/445. […] This was a key finding as PEGylation is currently one of the most used methods to improve protein delivery.

[3] = mouse, in vivo
Experimental: Fluorescently labeled constructs are administered to mice by different routes of injection including intravenously by way of retroorbital or tail vein injection, as well as intrathecally. At set time points the mice are imaged using IVIS to track the biodistribution patterns.

[4] = system: Human endothelial cells cultured alone or with microglial and astrocyte cells on a transwell membrane
Experimental: The ability of the construct to pass the BBB is also assessed. […] To investigate this an in vitro transwell model of transcytosis is used. Human endothelial cells are cultured alone or in concert with microglial and astrocyte cells on a transwell membrane. Once confluent, the constructs are added to the apical side of the insert and their transcytosis through the cell monolayer to the basolateral side of the insert is quantified by fluorescence.

| protein activity, PEGylated protein versus ProSNA constructs (GCase) | Molecule | GCase activity of ProSNA constructs with small molecule activator (GCase ProSNA constructs) | protein activity after functionalization, compared with unmodified GCase (GCase) | protein activity, univalent versus bivalent constructs (GCase) | also measured |
| --- | --- | --- | --- | --- | --- |
|  | Nc1c(Br)cc(Br)cc1CN[C@H]1CC[C@H](O)CC1 [Ambroxol] | elevation in enzyme activity; also recorded: partial recovery of GCase activity |  |  |  |
|  | OCCOCCN1CCN(C2=Nc3ccccc3Sc3ccccc32)CC1 [quetiapine] | elevation in enzyme activity; also recorded: partial recovery of GCase activity |  |  | presence of α-synuclein protein aggregates [1]: reduce the presence of α-synuclein protein aggregates; activity of the native GCase protein (native GCase protein; 5 μM quetiapine): sufficient to increase the activity of the native protein; activity of the native GCase protein (native GCase protein; 10 μM quetiapine): sufficient to increase the activity of the native protein |
| significant increase in activity | B1 |  | functionalization does impact protein activity; also recorded: reduction of overall activity | no significant difference between the univalent and bivalent variations; also recorded: no significant difference between the uni- and bivalent constructs | rates of uptake across time points ([2]; different time points): highest at shorter time points; uptake into cells compared to control groups ([2]; neurons (dopaminergic), astrocytes, microglia, flow cytometry): enhance its uptake into all cell types; biodistribution (localization to the brain space) [3]: localize to the brain space in higher concentrations when compared to control groups; rate of transcytosis across the blood-brain barrier [4]: significant increase in the rate of transcytosis across the blood-brain barrier was observed; rate of transcytosis compared to control groups [4]: higher rate of transcytosis when compared to control groups |
| significant increase in activity | B3 |  | functionalization does impact protein activity | no significant difference between the univalent and bivalent variations; also recorded: no significant difference between the uni- and bivalent constructs |  |

| Molecule | protein activity, PEGylated protein versus ProSNA constructs (GCase) | GCase activity of ProSNA constructs with small molecule activator (GCase ProSNA constructs) | protein activity after functionalization, compared with unmodified GCase (GCase) | protein activity, univalent versus bivalent constructs (GCase) | also measured |
| --- | --- | --- | --- | --- | --- |
| B2 | significant increase in activity when comparing the PEGylated protein to both ProSNA constructs |  |  |  |  |
